Assay [1] concerns the target HIV-1_(92UG037-08) gp120 (HIV-1 (strain 92UG037-08, clade A)). As to the kind of experiment: SPR. In general terms: Surface plasmon resonance follows binding to a sensor surface in real time, without labels.
Assay [2] concerns the target HIV-1_(SF162) gp120 (HIV-1 (strain SF162, clade B)). Kind of assay: SPR.

Starred links: 1 amine or outer side, 2 acyl side, 3 side chain; linkers in the order of their positions; H or OH if unused. Non-standard residues stand in square brackets, D forms with d. No end group written: not given here. X1 = (2S,4S)‑4‑(4-ferrocenyl-1H-1,2,3-triazol-1-yl)pyrrolidine‑2‑carboxylic acid, O=C([C@@H]1C[C@H](n2cc(-[c-]3cccc3)nn2)CN1[*:1])[*:2].[Fe+2].c1cc[cH-]c1

This passage reports Kd results from paper PMC3652662 (Journal of molecular recognition : JMR, 2009).

Broadly, the Kd is a measure of binding affinity in units of concentration. A lower Kd goes with a tighter complex.

RINNI[X1]WSEAMM-NH2 [HNG-156, ferrocene triazole peptide conjugate]: the figures for the Kd in assay [1] and in assay [2] were 16.3 nM and 9 nM, respectively.
